Experimental data reported in publication PMC2425495 (Nucleic Acids Research, 2008).

T1: HutP (V51I) (Bacillus subtilis, UniProt P10943 1-148, V51I)
T1 sequence: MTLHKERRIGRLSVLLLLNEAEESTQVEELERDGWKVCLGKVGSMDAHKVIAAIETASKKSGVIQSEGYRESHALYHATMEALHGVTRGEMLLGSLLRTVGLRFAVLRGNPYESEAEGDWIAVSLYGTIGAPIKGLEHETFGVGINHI

B1: HutP (Val 51 Ile mutant), anti-termination protein of the hut operon (natural protein, Bacillus subtilis)
chain: TLHKERRIGRLSVLLLLNEAEESTQVEELERDGWKVCLGKVGSMDAHKVIAAIETASKKSGVIQSEGYRESHALYHATMEALHGVTRGEMLLGSLLRTVGLRFAVLRGNPYESEAEGDWIAVSLYGTIGAPIKGLEHETFGVGINHI

What was measured:
crystal structure = molecular target: the molecule itself; experiment: crystal structure
HutP (V51I) = molecular target: T1, HutP (V51I); experiment: EMSA

| Binder | stoichiometry N (crystal structure) | binding result (HutP (V51I)) |
| --- | --- | --- |
| B1 | 6 | – |
| UUUAGUUUUUAGUUUUUAGUU (ssRNA) [21-mer RNA] | – | binds |
